Laboratory results published in US20240376207A1 (JIANGSU HENGRUI PHARMACEUTICALS, published 2024).
Changes are numbered by the printed parent chain.

T1: human PVRIG expressed on cells (human, UniProt Q6DKI7 41-326)
T1 sequence (looked up): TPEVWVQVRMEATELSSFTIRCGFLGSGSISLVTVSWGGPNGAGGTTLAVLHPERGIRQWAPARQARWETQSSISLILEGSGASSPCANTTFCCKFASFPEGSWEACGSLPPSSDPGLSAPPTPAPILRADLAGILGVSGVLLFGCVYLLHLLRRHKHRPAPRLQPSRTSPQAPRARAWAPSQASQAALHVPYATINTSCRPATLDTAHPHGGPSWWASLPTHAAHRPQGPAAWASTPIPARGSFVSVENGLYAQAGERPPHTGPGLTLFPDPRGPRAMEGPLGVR

T2: his-tagged human PVRIG (h-PVRIG-his) recombinant protein (human, UniProt Q6DKI7 41-171, limits assumed)
T2 construct: bought from Acrobiosystems; also called Human PVRIG-his; human PVRIG recombinant protein; not shown: his tag
T2 sequence (looked up): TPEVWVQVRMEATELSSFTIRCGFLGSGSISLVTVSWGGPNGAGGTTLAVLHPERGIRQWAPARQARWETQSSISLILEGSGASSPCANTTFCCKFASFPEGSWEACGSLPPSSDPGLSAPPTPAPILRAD

T3: cynomolgus monkey PVRIG expressed on cells (cynomolgus monkey, UniProt A0A2K5WVV8 1-322)
T3 construct: whole, on cells; also called Monkey PVRIG FACS; cells overexpressing cynomolgus monkey PVRIG
T3 sequence: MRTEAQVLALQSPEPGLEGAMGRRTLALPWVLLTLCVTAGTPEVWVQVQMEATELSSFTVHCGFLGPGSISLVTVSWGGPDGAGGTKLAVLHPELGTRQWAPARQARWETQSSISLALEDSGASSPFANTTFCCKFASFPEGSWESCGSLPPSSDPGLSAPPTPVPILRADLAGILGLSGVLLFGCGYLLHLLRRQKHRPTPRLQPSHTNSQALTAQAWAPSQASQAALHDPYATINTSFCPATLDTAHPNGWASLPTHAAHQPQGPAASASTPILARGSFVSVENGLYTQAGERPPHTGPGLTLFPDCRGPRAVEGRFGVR

B1: humanized anti-PVRIG antibody 39H2 (antibody, human IgG4 S228P, F234A L235A, V domains shown)
VH: EVQLVESGGGLVQPGGSLRLSCAASGFTSRTDCMGWFRQAPGKGLEGVAHIDSDGIPRYVESVKGRFTISRDNAKNSLYLQMNSLRAEDTAVYYCVVGFKFGDYCAPNDWGQGTMVTVSS
B2: humanized anti-PVRIG antibody 39H1 (antibody, human IgG4 S228P, F234A L235A, V domains shown)
VH: B1 VH with S29F, R30S
B3: humanized anti-PVRIG antibody 151H7 (antibody, human IgG4 S228P, F234A L235A, V domains shown)
VH: HVQLVESGGGLVQPGGSLRLSCVASASGFTYRPYCMAWFRQAPGKEREAVAGIDIFGGTTYADSVKGRFTASRDNAGFSLYLQMNSLRAEDTAVYYCAAGDSPDGRCPPLGQGLNYWGQGTMVTVSS
B4: humanized anti-PVRIG antibody 20H5 (antibody, human IgG4 S228P, F234A L235A, V domains shown)
VH: EVQLVESGGGLVQPGGSLRLSCAASGYTSRTDCMGWFRQAPGKEHEGVAHIDSDGIPRYVDSVKGRFTISQDHAKNSLYLQMNSLRAEDTAVYYCVVGFKFDEDYCAPNDWGQGTMVTVSS
B5: humanized anti-PVRIG antibody 39H4 (antibody, human IgG4 S228P, F234A L235A, V domains shown)
VH: B1 VH with F27Y, R71Q, N73H
B6: humanized anti-PVRIG antibody 30H3 (antibody, human IgG4 S228P, F234A L235A, V domains shown)
VH: EVQLVESGGGLVQPGGSLRLSCAASGYSYSGDCMGWFRQAPGKGLDEGVATIDNAGRIKYADSVKGRFTISRDNAKNSLYLQMNSLRAEDTAVYYCAAGWTFGGQCSPADWGQGTQVTVSS
B7: humanized anti-PVRIG antibody 151H4 (antibody, human IgG4 S228P, F234A L235A, V domains shown)
VH: B3 VH with H1E, E46G, R47L, A71I, G77K, F78N
B8: humanized anti-PVRIG antibody 39H5 (antibody, human IgG4 S228P, F234A L235A, V domains shown)
VH: B1 VH with F27Y, G44E, L45R, R71Q, N73H
B9: humanized anti-PVRIG antibody 39H3 (antibody, human IgG4 S228P, F234A L235A, V domains shown)
VH: B1 VH with F27Y, S29F, R30S, R71Q, N73H
B10: humanized anti-PVRIG antibody 20H4 (antibody, human IgG4 S228P, F234A L235A, V domains shown)
VH: B4 VH with E44G, H45L
B11: humanized anti-PVRIG antibody 20H1 (antibody, human IgG4 S228P, F234A L235A, V domains shown)
VH: B4 VH with Y27F, S29F, R30S, E44G, H45L, Q71R, H73N
B12: humanized anti-PVRIG antibody 20H2 (antibody, human IgG4 S228P, F234A L235A, V domains shown)
VH: B4 VH with Y27F, E44G, H45L, Q71R, H73N
B13: humanized anti-PVRIG antibody 20H3 (antibody, human IgG4 S228P, F234A L235A, V domains shown)
VH: B4 VH with S29F, R30S, E44G, H45L
B14: humanized anti-PVRIG antibody 38H7 (antibody, human IgG4 S228P, F234A L235A, V domains shown)
VH: EVQLVESGGGVVQPGGSLRLSCAASPSTYGPSDMAWFRQAPGKQREGVATISAAGRLTYYTDSVRGRFTISRDNSKNTMYLQMNSLRAEDTAVYYCAADFAGGSSLFADYKYWGQGTMVTVSS
B15: humanized anti-PVRIG antibody 38H4 (antibody, human IgG4 S228P, F234A L235A, V domains shown)
VH: B14 VH with S27F, Q44G, R45L, M79L
B16: humanized anti-PVRIG antibody 38H2 (antibody, human IgG4 S228P, F234A L235A, V domains shown)
VH: B14 VH with P26G, S27F, Y29F, G30S, Q44G, R45L, M79L
B17: humanized anti-PVRIG antibody 30H1 (antibody, human IgG4 S228P, F234A L235A, V domains shown)
VH: EVQLVESGGGLVQPGGSLRLSCAASGFTFSGDCMGWFRQAPGKGLEGVATIDNAGRIKYADSVKGRFTISRDNAKNSLYLQMNSLRAEDTAVYYCAAGWTFGGQCSPADWGQGTQVTVSS
B18: humanized anti-PVRIG antibody 151H9 (antibody, human IgG4 S228P, F234A L235A, V domains shown)
VH: B3 VH with E46G, R47L
B19: humanized anti-PVRIG antibody 38H9 (antibody, human IgG4 S228P, F234A L235A, V domains shown)
VH: B14 VH with Q44G, R45L
B20: humanized anti-PVRIG antibody 38H8 (antibody, human IgG4 S228P, F234A L235A, V domains shown)
VH: B14 VH with Q44G, R45L, M79L

Target: T1, human PVRIG expressed on cells
Experiment: cell-based or functional assay

| Binder | NK92 killing of K562, killing activity (%), 4 nM antibody | NK92 killing of K562, killing activity (%), 20 nM antibody | NK92 killing of K562, killing activity (%), 100 nM antibody |
| --- | --- | --- | --- |
| B1 | 15.3% | 18.7% | 19.7% |
| B2 | 13.7% | 17.7% | 21.2% |
| B3 | 16.9% | 21% | 18.4% |

Target: T1, human PVRIG expressed on cells
Experiment: cell-based or functional assay
Remark: another data set of the same source

| Binder | NK92 killing of K562, killing activity (%), 4 nM antibody | NK92 killing of K562, killing activity (%), 20 nM antibody | NK92 killing of K562, killing activity (%), 100 nM antibody |
| --- | --- | --- | --- |
| B4 | 9.2% | 9.9% | 13.3% |

Target: T2, his-tagged human PVRIG (h-PVRIG-his) …
Experiment: BLI (Fortebio), antibody on Protein A sensor, 1:1 fit
Experimental: A Protein A biosensor (Fortebio, #18-5010) was immersed in 200 μL of KB buffer (PBS, pH 7.4, 0.02% tween-20, 0.1% BSA) for 60 s for the wetting treatment. Then, the anti-PVRIG antibody was diluted to 10 μg/mL with the KB buffer, and the sensor was immersed in 200 μL of the solution until the reading was 1.2 nm. The sensor was immersed in the KB buffer for 100 s to elute excess antibody. The his-tagged human PVRIG was diluted in a 2-fold gradient to 64 nM-4 nM with the KB buffer. The sensor was immersed in the solution for 300 s for binding. The sensor was immersed in the KB buffer for 600 s for dissociation. The data were fitted in a dynamic 1:1 binding mode.
The affinity of the humanized anti-PVRIG antibodies for human PVRIG was detected according to the method of Example 7. All the antibodies listed in the Table have high affinity for human PVRIG.

| Kd | koff | kon | Binder |
| --- | --- | --- | --- |
| 0.482 nM | 9.11e-05 s⁻¹ | 189000 M⁻¹ s⁻¹ | B5 |
| 0.692 nM | 0.000124 s⁻¹ | 180000 M⁻¹ s⁻¹ | B1 |
| 3.28 nM | 0.000865 s⁻¹ | 264000 M⁻¹ s⁻¹ | B2 |
| 0.0698 nM | 1.35e-05 s⁻¹ | 193000 M⁻¹ s⁻¹ | B4 |
| 2.41 nM | 0.000358 s⁻¹ | 148000 M⁻¹ s⁻¹ | B6 |
| 1.2 nM | 0.000188 s⁻¹ | 157000 M⁻¹ s⁻¹ | B3 |

Target: T1, human PVRIG expressed on cells
Experiment: cell-based or functional assay
Remark: another data set of the same source

| PVRIG reporter gene cell activity EC50 | Binder |
| --- | --- |
| 0.094 nM | B5 |
| 0.074 nM | B1 |
| 0.191 nM | B2 |
| 0.042 nM | B4 |
| 0.078 nM | B6 |
| 0.038 nM | B3 |
| 3.55 nM | B7 |

Target: T3, cynomolgus monkey PVRIG expressed on …
Experiment: FACS, HEK293 cells overexpressing target
Experimental: (§1) The expression plasmid carrying human or cynomolgus monkey PVRIG gene sequence was transfected into HEK293 cells, and the over-expressing stable transfection monoclonal cell strain was obtained by antibiotic screening and infinite dilution. Overexpressing cells were seeded into a 96-well plate at 2×10⁵ cells/per well. The cells were centrifuged at 300 g for 5 min, the supernatant was then removed, 100 μL of the test antibody was added, and the mixture was incubated at 4° C. for 1 h. The mixture was centrifuged, the supernatant was removed, the plate was washed 3 times with 200 μL of wash buffer (PBS+2% FBS), and then 100 μL of an anti-human IgG secondary antibody (Invitrogen, A-11013) labeled with Alexa Fluor 488 diluted at 1:500 was added. The mixture was incubated at 4° C. for 1 h. The plate was centrifuged, and the supernatant was removed. The plate was washed 3 times with 200 μL of wash buffer (PBS+2% FBS). The cells were resuspended in 100 μL of PBS and tested on a flow cytometer (BD FACS Calibur or BD FACS Canto_II).
(§2) Binding of the humanized anti-PVRIG antibodies to human or cynomolgus monkey PVRIG was detected by using a flow cytometer according to the method of Example 5.

| EC50 | Binder |
| --- | --- |
| 0.006 nM | B5 |
| 0.019 nM | B1 |
| 0.251 nM | B2 |
| 0.208 nM | B8 |
| 0.348 nM | B9 |
| 0.007 nM | B4 |
| 0.591 nM | B10 |
| 0.658 nM | B11 |
| 0.338 nM | B12 |
| 1.5 nM | B13 |
| 0.049 nM | B14 |
| 0.095 nM | B15 |
| 0.137 nM | B16 |
| 0.374 nM | B17 |
| 0.003 nM | B6 |
| 3.94 nM | B18 |
| 0.467 nM | B3 |
| 0.035 nM | B7 |

Target: T1, human PVRIG expressed on cells
Experiment: FACS, HEK293 cells overexpressing target
Experimental: as §1, §2

| EC50 | Binder |
| --- | --- |
| 0.005 nM | B5 |
| 0.006 nM | B1 |
| 0.004 nM | B2 |
| 0.006 nM | B8 |
| 0.005 nM | B9 |
| 0.005 nM | B4 |
| 0.008 nM | B10 |
| 0.019 nM | B11 |
| 0.006 nM | B12 |
| 0.006 nM | B13 |
| 0.068 nM | B19 |
| 0.04 nM | B14 |
| 0.062 nM | B15 |
| 0.088 nM | B16 |
| 0.065 nM | B20 |
| 0.024 nM | B17 |
| 0.004 nM | B6 |
| 0.004 nM | B18 |
| 0.002 nM | B3 |
| 0.24 nM | B7 |
